Among the data in paper PMC314469, “Protein Interaction Networks by Proteome Peptide Scanning” (PLoS Biology, 2004) are normalised SPOT signal, Boehringer light units (BLU); mean over the file's lines of this peptide values, retold here.

First the molecules themselves.
T1: amphyphisin SH3 (AMPH_HUMAN), P49418
T1 chain: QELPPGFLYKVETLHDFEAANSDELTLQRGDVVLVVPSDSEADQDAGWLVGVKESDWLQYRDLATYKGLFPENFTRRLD

B1: Q96KZ1 72-86 (peptide)
chain: QPDGPARPPGMAPS
B2: Q9H5W5 105-119 (peptide)
chain: QKTRPIKPPPDSQE
B3: Q9Y381 268-281 (peptide)
chain: QPVNPPRPFKHSER
B4: Q9Y403 46-59 (peptide)
chain: QIRILKRPTSNGVV
B5: Q9Y6V0 327-341 (peptide)
chain: QPLGPAKPPAQQTG
B6: P42357 562-575 (peptide)
chain: QGIEFLRPLKTTTP
B7: Q96RY6 139-152 (peptide)
chain: QQFRLRRPSGITWP
B8: Q96NX7 585-598 (peptide)
chain: QLVILRRPERPMED
B9: P15976 237-250 (peptide)
chain: QNRPLIRPKKRLIV
B10: O43426 1101-1114 (peptide)
chain: QPLEPKRPPPPRPV
B11: O75116 1371-1384 (peptide)
chain: QNQSIRRPSRQLAP
B12: Q96S15 319-332 (peptide)
chain: QLWDIRRPDRSERM
B13: Q9UII6 5-18 (peptide)
chain: QKQDLRRPKIHGAV
B14: Q9BZS0 76-90 (peptide)
chain: QQKPPKRPPIEASV
B15: O43566 535-548 (peptide)
chain: QGPAPRRPTTDQIS
B16: P04280 312-326 (peptide)
chain: QPQGPPRPPQGGRP
B17: Q07092 192-205 (peptide)
chain: QPLGPRRPMRPVGH
B18: Q9C0A3 966-979 (peptide)
chain: ATAFLQRPSRAGSL
B19: Q9ULC8 29-42 (peptide)
chain: ATSHFYRPPRSSHS
B20: Q9BRZ8 226-240 (peptide)
chain: QILSPPRPPTSPSF
B21: Q13873 748-761 (peptide)
chain: QQNLPKRPTSLPLN
B22: Q9C0B5 150-163 (peptide)
chain: ATSRFYRPPRSSHS
B23: P08263 197-211 (peptide)
chain: QPGSPRKPPMDEKS
B24: Q9BWY5 227-240 (peptide)
chain: QLFTPNRPKKREIY
B25: Q9H6J3 73-86 (peptide)
chain: QGSAPLRPFRSGEG
B26: Q9H8J7 161-174 (peptide)
chain: QPQSLRRPLWLSHS
B27: Q9H6Q4 405-418 (peptide)
chain: QLQAPDRPSRELLQ
B28: Q15215 74-88 (peptide)
chain: QPQGPPRPPQGDKP
B29: Q16772 198-212 (peptide)
chain: QPGSPRKPPADAKA
B30: P16066 284-297 (peptide)
chain: QGPAPRRPWERGDG
B31: Q96JF9 85-98 (peptide)
chain: QKFSLRRPLQTAMI
B32: Q9P0Y7 137-150 (peptide)
chain: QKDVIRRPTFVPQW
B33: O43163 368-382 (peptide)
chain: QLSSPIRPPKYYTY
B34: Q04118 294-308 (peptide)
chain: QGGRPHRPPQGQPP
B35: Q13267 138-151 (peptide)
chain: QGASIRRPSSGNAS
B36: O60275 1399-1412 (peptide)
chain: QHYTLGRPGRAPRR
B37: Q9BZE0 329-343 (peptide)
chain: QLRPPPKPPLPAPD
B38: Q9Y477 106-119 (peptide)
chain: QPALLKRPQLELYV

The target in one assay is T1, amphyphisin SH3 (AMPH_HUMAN), P49418. Nature of the assay: SPOT array.
In turn, B1 had a normalised SPOT signal, Boehringer light units (BLU); mean over the file's lines of this peptide of 63.5.
Still for that read-out and setting: next, B2: 42.1; B3: 275; B4: 6.4.
The same measure, in the same setting: next, B5: 52.7; B6: 31.9.
B7 yielded a normalised SPOT signal, Boehringer light units (BLU); mean over the file's lines of this peptide of 61.5.
The molecule B8 gave a normalised SPOT signal, Boehringer light units (BLU); mean over the file's lines of this peptide of 31.8.
Regarding B9, the normalised SPOT signal, Boehringer light units (BLU); mean over the file's lines of this peptide was 43.3.
Consider B10, for which the normalised SPOT signal, Boehringer light units (BLU); mean over the file's lines of this peptide stood at 28.6.
On the same count and under the same terms, the result for B11 reads 1460; that for B12, 2300; that for B13, 56.3.
Molecule B14 showed a normalised SPOT signal, Boehringer light units (BLU); mean over the file's lines of this peptide of 57.3.
Take B15: the normalised SPOT signal, Boehringer light units (BLU); mean over the file's lines of this peptide was determined as 36.6.
Regarding B16, the normalised SPOT signal, Boehringer light units (BLU); mean over the file's lines of this peptide stood at 58.6.
For B17, the normalised SPOT signal, Boehringer light units (BLU); mean over the file's lines of this peptide came to 10200.
The molecule B18 showed a normalised SPOT signal, Boehringer light units (BLU); mean over the file's lines of this peptide of 15700.
The same measure, in the same setting: the result for B19 reads 8300.
Still for that read-out and setting: the result for B20 reads 75.8.
As to B21, the normalised SPOT signal, Boehringer light units (BLU); mean over the file's lines of this peptide worked out at 47.8.
Consider B22, for which the normalised SPOT signal, Boehringer light units (BLU); mean over the file's lines of this peptide is 5620.
Regarding B23, the normalised SPOT signal, Boehringer light units (BLU); mean over the file's lines of this peptide was determined as 59.8.
In turn, B24 returned a normalised SPOT signal, Boehringer light units (BLU); mean over the file's lines of this peptide of 165.
Still for that read-out and setting: next, B25: 7120.
In turn, B26 gave a normalised SPOT signal, Boehringer light units (BLU); mean over the file's lines of this peptide of 66.8.
B27 returned a normalised SPOT signal, Boehringer light units (BLU); mean over the file's lines of this peptide of 3320.
Turning to B28, the normalised SPOT signal, Boehringer light units (BLU); mean over the file's lines of this peptide was determined as 84.1.
With B29, the normalised SPOT signal, Boehringer light units (BLU); mean over the file's lines of this peptide amounted to 36.6.
On to B30, for which the normalised SPOT signal, Boehringer light units (BLU); mean over the file's lines of this peptide turned out to be 35.7.
B31 returned a normalised SPOT signal, Boehringer light units (BLU); mean over the file's lines of this peptide of 64.3.
For B32, the normalised SPOT signal, Boehringer light units (BLU); mean over the file's lines of this peptide was 22.8.
Take B33: the normalised SPOT signal, Boehringer light units (BLU); mean over the file's lines of this peptide worked out at 227.
Still for that read-out and setting: the result for B34 reads 37.1; that for B35, 33.6.
The same measure, in the same setting: the result for B36 reads 565; that for B37, 825.
The molecule B38 came in with a normalised SPOT signal, Boehringer light units (BLU); mean over the file's lines of this peptide of 28.2.

A further assay concerns the target endophilin SH3 (SH3G2_HUMAN), Q99962. Nature of the assay: SPOT array.
Turning to B1, the normalised SPOT signal, Boehringer light units (BLU); mean over the file's lines of this peptide was determined as 39.7.
The molecule B2 returned a normalised SPOT signal, Boehringer light units (BLU); mean over the file's lines of this peptide of 36.3.
The molecule B3 showed a normalised SPOT signal, Boehringer light units (BLU); mean over the file's lines of this peptide of 1250.
Molecule B4 yielded a normalised SPOT signal, Boehringer light units (BLU); mean over the file's lines of this peptide of 148.
In turn, B5 had a normalised SPOT signal, Boehringer light units (BLU); mean over the file's lines of this peptide of 63.4.
In turn, B6 came in with a normalised SPOT signal, Boehringer light units (BLU); mean over the file's lines of this peptide of 83.1.
Consider B7, for which the normalised SPOT signal, Boehringer light units (BLU); mean over the file's lines of this peptide was 116.
In turn, B8 returned a normalised SPOT signal, Boehringer light units (BLU); mean over the file's lines of this peptide of 16.7.
Still for that read-out and setting: next, B9: 1510.
With B10, the normalised SPOT signal, Boehringer light units (BLU); mean over the file's lines of this peptide is 124.
The same measure, in the same setting: the result for B11 reads 665; that for B12, 692.
B13 gave a normalised SPOT signal, Boehringer light units (BLU); mean over the file's lines of this peptide of 85.7.
Regarding B14, the normalised SPOT signal, Boehringer light units (BLU); mean over the file's lines of this peptide stood at 822.
B15 displayed a normalised SPOT signal, Boehringer light units (BLU); mean over the file's lines of this peptide of 6570.
With B16, the normalised SPOT signal, Boehringer light units (BLU); mean over the file's lines of this peptide came to 210.
In turn, B17 came in with a normalised SPOT signal, Boehringer light units (BLU); mean over the file's lines of this peptide of 2870.
As for B18, the normalised SPOT signal, Boehringer light units (BLU); mean over the file's lines of this peptide came out at 298.
Still for that read-out and setting: the result for B19 reads 218; that for B20, 4830; that for B21, 520.
In the case of B22, the normalised SPOT signal, Boehringer light units (BLU); mean over the file's lines of this peptide was determined as 400.
The same measure, in the same setting: next, B23: 68.3; B24: 698.
On the same count and under the same terms, next, B25: 1840; B26: 1380; B27: 377.
Molecule B28 yielded a normalised SPOT signal, Boehringer light units (BLU); mean over the file's lines of this peptide of 94.4.
Molecule B29 gave a normalised SPOT signal, Boehringer light units (BLU); mean over the file's lines of this peptide of 46.1.
Still for that read-out and setting: next, B30: 0; B31: 73.5; B32: 91.5.
Turning to B33, the normalised SPOT signal, Boehringer light units (BLU); mean over the file's lines of this peptide came to 2940.
On to B34, for which the normalised SPOT signal, Boehringer light units (BLU); mean over the file's lines of this peptide is 51.3.
In turn, B35 registered a normalised SPOT signal, Boehringer light units (BLU); mean over the file's lines of this peptide of 124.
Take B36: the normalised SPOT signal, Boehringer light units (BLU); mean over the file's lines of this peptide was found to be 73.
Same read-out and setting: next, B37: 4110; B38: 52.6.
